Test results published in paper PMC10397247.
Like-named read-outs stand apart in the source and are kept apart here.

T1: 4H349-bA
T1 chain: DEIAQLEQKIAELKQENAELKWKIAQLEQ

T2: 4H56-bA
T2 chain: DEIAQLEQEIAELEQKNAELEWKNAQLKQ

T3: 4H730-bA
T3 chain: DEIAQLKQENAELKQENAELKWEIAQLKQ

T4: 4H796-bA
T4 chain: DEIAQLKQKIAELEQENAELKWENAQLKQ

T5: 4H932-bA
T5 chain: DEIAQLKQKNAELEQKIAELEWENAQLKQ

T6: 4H949-bA
T6 chain: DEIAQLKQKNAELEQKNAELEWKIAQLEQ

T7: O15-bP
T7 chain: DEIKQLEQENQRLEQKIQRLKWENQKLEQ

T8: 4H2705-AA
T8 chain: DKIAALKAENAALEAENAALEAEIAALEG

T9: 4H2736-AA
T9 chain: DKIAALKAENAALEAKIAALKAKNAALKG

T10: 4H2758-AA
T10 chain: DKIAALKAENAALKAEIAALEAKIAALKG

T11: 4H278-AA
T11 chain: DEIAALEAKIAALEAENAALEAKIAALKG

T12: 4H2873-AA
T12 chain: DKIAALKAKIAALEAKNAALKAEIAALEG

T13: 4H2888-AA
T13 chain: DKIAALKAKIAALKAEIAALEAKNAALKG

T14: 4H2985-AA
T14 chain: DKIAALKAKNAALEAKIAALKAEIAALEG

T15: 4H3049-AA
T15 chain: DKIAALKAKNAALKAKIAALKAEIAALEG

T16: 4H3134-AA
T16 chain: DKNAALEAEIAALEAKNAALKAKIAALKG

T17: 4H337-AA
T17 chain: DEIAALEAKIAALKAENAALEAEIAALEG

T18: 4H3409-AA
T18 chain: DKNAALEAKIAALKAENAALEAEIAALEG

T19: 4H3587-AA
T19 chain: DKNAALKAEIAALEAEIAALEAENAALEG

T20: 4H3590-AA
T20 chain: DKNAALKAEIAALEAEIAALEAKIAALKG

T21: 4H3625-AA
T21 chain: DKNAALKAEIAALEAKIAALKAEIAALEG

T22: 4H384-AA
T22 chain: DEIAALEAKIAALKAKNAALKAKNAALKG

T23: 4H390-AA
T23 chain: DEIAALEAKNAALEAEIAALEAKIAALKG

T24: 4H3905-AA
T24 chain: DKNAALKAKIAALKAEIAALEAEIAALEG

T25: 4H3940-AA
T25 chain: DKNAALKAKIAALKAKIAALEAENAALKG

T26: 4H4038-AA
T26 chain: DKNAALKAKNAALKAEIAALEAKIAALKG

T27: 4H43-AA
T27 chain: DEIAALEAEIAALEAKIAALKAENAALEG

T28: 4H451-AA
T28 chain: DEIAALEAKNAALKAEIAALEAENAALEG

T29: 4H510-AA
T29 chain: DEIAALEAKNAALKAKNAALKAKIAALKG

T30: 4H775-AA
T30 chain: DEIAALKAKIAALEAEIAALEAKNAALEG

T31: 4H816-AA
T31 chain: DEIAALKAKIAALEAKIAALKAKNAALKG

T32: 4H87-AA
T32 chain: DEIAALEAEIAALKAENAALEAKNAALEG

T33: 4H_APH
T33 chain: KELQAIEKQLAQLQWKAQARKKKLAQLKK

T34: 4H_BCR
T34 chain: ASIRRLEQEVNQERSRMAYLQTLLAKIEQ

T35: O11-AA
T35 chain: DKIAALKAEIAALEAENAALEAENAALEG

T36: O13-AA
T36 chain: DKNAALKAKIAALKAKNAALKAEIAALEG

T37: O14-AA
T37 chain: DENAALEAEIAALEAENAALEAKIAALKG

T38: 4H3961-bH
T38 chain: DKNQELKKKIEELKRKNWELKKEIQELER

T39: 4H470-bH
T39 chain: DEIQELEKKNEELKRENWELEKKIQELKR

T40: P6A-bS
T40 chain: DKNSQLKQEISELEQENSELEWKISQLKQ

T41: P7A-bS
T41 chain: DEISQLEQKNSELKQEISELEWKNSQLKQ

T42: P8A-bS
T42 chain: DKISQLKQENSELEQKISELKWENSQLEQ

T43: P9A-bS
T43 chain: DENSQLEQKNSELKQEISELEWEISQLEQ

T44: 4H496-bA
T44 chain: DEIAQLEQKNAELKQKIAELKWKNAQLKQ


Key:
4H349-bA = biological target: T1, 4H349-bA; assay: two-hybrid library CCNG1;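 note: natural log of median RNA to DNA barcode read ratio; higher means stronger binding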
4H56-bA = biological target: T2, 4H56-bA; assay: two-hybrid library CCNG1;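 note: natural log of median RNA to DNA barcode read ratio; higher means stronger binding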
4H730-bA = biological target: T3, 4H730-bA; assay: two-hybrid library CCNG1;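 note: natural log of median RNA to DNA barcode read ratio; higher means stronger binding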
4H796-bA = biological target: T4, 4H796-bA; assay: two-hybrid library CCNG1;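 note: natural log of median RNA to DNA barcode read ratio; higher means stronger binding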
4H932-bA = biological target: T5, 4H932-bA; assay: two-hybrid library CCNG1;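 note: natural log of median RNA to DNA barcode read ratio; higher means stronger binding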
4H949-bA = biological target: T6, 4H949-bA; assay: two-hybrid library CCNG1;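 note: natural log of median RNA to DNA barcode read ratio; higher means stronger binding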
O15-bP = biological target: T7, O15-bP; assay: two-hybrid library CCNG1
4H2705-AA = biological target: T8, 4H2705-AA; assay: two-hybrid library CCmax
4H2736-AA = biological target: T9, 4H2736-AA; assay: two-hybrid library CCmax
4H2758-AA = biological target: T10, 4H2758-AA; assay: two-hybrid library CCmax; settings: mean of both orientations
4H278-AA = biological target: T11, 4H278-AA; assay: two-hybrid library CCmax; settings: mean of both orientations
4H2873-AA = biological target: T12, 4H2873-AA; assay: two-hybrid library CCmax; settings: mean of both orientations
4H2888-AA = biological target: T13, 4H2888-AA; assay: two-hybrid library CCmax; settings: mean of both orientations
4H2985-AA = biological target: T14, 4H2985-AA; assay: two-hybrid library CCmax
4H3049-AA = biological target: T15, 4H3049-AA; assay: two-hybrid library CCmax; settings: mean of both orientations
4H3134-AA = biological target: T16, 4H3134-AA; assay: two-hybrid library CCmax; settings: mean of both orientations
4H337-AA = biological target: T17, 4H337-AA; assay: two-hybrid library CCmax; settings: mean of both orientations
4H3409-AA = biological target: T18, 4H3409-AA; assay: two-hybrid library CCmax; settings: mean of both orientations
4H3587-AA = biological target: T19, 4H3587-AA; assay: two-hybrid library CCmax; settings: mean of both orientations
4H3590-AA = biological target: T20, 4H3590-AA; assay: two-hybrid library CCmax; settings: mean of both orientations
4H3625-AA = biological target: T21, 4H3625-AA; assay: two-hybrid library CCmax; settings: mean of both orientations
4H384-AA = biological target: T22, 4H384-AA; assay: two-hybrid library CCmax; settings: mean of both orientations
4H390-AA = biological target: T23, 4H390-AA; assay: two-hybrid library CCmax; settings: mean of both orientations
4H3905-AA = biological target: T24, 4H3905-AA; assay: two-hybrid library CCmax; settings: mean of both orientations
4H3940-AA = biological target: T25, 4H3940-AA; assay: two-hybrid library CCmax; settings: mean of both orientations
4H4038-AA = biological target: T26, 4H4038-AA; assay: two-hybrid library CCmax; settings: mean of both orientations
4H43-AA = biological target: T27, 4H43-AA; assay: two-hybrid library CCmax
4H451-AA = biological target: T28, 4H451-AA; assay: two-hybrid library CCmax; settings: mean of both orientations
4H510-AA = biological target: T29, 4H510-AA; assay: two-hybrid library CCmax; settings: mean of both orientations
4H775-AA = biological target: T30, 4H775-AA; assay: two-hybrid library CCmax; settings: mean of both orientations
4H816-AA = biological target: T31, 4H816-AA; assay: two-hybrid library CCmax; settings: mean of both orientations
4H87-AA = biological target: T32, 4H87-AA; assay: two-hybrid library CCmax; settings: mean of both orientations
4H_APH = biological target: T33, 4H_APH; assay: two-hybrid library CCmax; settings: mean of both orientations
4H_BCR = biological target: T34, 4H_BCR; assay: two-hybrid library CCmax; settings: mean of both orientations
4H_GCN4 = assay: two-hybrid library CCmax; settings: mean of both orientations
Chain of 4H_GCN4 (chain, as listed by the source): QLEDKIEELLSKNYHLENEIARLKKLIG

GCN2_T = assay: two-hybrid library CCmax
O11-AA = biological target: T35, O11-AA; assay: two-hybrid library CCmax; settings: mean of both orientations
O13-AA = biological target: T36, O13-AA; assay: two-hybrid library CCmax; settings: mean of both orientations
O14-AA = biological target: T37, O14-AA; assay: two-hybrid library CCmax; settings: mean of both orientations
4H3961-bH = biological target: T38, 4H3961-bH; assay: two-hybrid library CCNG1; settings: mean of both orientations
4H470-bH = biological target: T39, 4H470-bH; assay: two-hybrid library CCNG1
P6A-bS = biological target: T40, P6A-bS; assay: two-hybrid library CCNG1
P7A-bS = biological target: T41, P7A-bS; assay: two-hybrid library CCNG1
P8A-bS = biological target: T42, P8A-bS; assay: two-hybrid library CCNG1
P9A-bS = biological target: T43, P9A-bS; assay: two-hybrid library CCNG1
4H496-bA = biological target: T44, 4H496-bA; assay: two-hybrid library CCNG1

Binder | interaction score (4H2888-AA) | interaction score (4H3049-AA) | interaction score (4H337-AA) | interaction score (4H3587-AA) | interaction score (4H3590-AA) | interaction score (4H3625-AA) | interaction score (4H384-AA) | interaction score (4H3905-AA) | interaction score (4H4038-AA) | interaction score (4H451-AA) | interaction score (4H510-AA) | interaction score (4H_APH) | interaction score (4H_BCR) | interaction score (4H_GCN4) | interaction score (O11-AA) | interaction score (O13-AA) | interaction score (O14-AA) | other results
DEIAQLEQKIAELKQENAELKWKIAQLEQ [4H349-bA] |  |  |  |  |  |  |  |  |  |  |  |  |  |  |  |  |  | interaction score (4H349-bA): 0.649; interaction score (4H56-bA): -0.982; interaction score (4H730-bA): -0.854; interaction score (4H796-bA): -0.458; interaction score (4H932-bA): -0.919; interaction score (4H949-bA): -1.01; interaction score (O15-bP): 0.584
DKIAALKAENAALEAENAALEAEIAALEG [4H2705-AA] | -1.97 | 1.67 | -0.896 | -1.78 | -1.6 | -2.01 | 1.45 | -1.49 | 0.153 | -1.84 | 1.88 | -1.6 | -1.75 | -1.71 | -1.81 | -1.17 | -1.68 | interaction score (4H2705-AA): -1.4; interaction score (4H2736-AA; mean of both orientations): -1.45; interaction score (4H2758-AA): -1.01; interaction score (4H278-AA): -0.473; interaction score (4H2873-AA): -1.27; interaction score (4H2985-AA): -0.31; interaction score (4H3134-AA): -0.0637; interaction score (4H3409-AA): -1.62; interaction score (4H390-AA): -0.544; interaction score (4H3940-AA): -1.62; interaction score (4H43-AA; mean of both orientations): -1.82; interaction score (4H775-AA): -1.89; interaction score (4H816-AA): -1.52; interaction score (4H87-AA): -1.62; interaction score (GCN2_T; mean of both orientations): -1.4
DKNQELKKKIEELKRKNWELKKEIQELER [4H3961-bH] |  |  |  |  |  |  |  |  |  |  |  |  |  |  |  |  |  | interaction score (4H3961-bH): -1.2; interaction score (4H470-bH): 1.3
DKIAALKAENAALEAKIAALKAKNAALKG [4H2736-AA] | -0.685 | 0.275 | -0.315 | -1.26 | -0.712 | 0.218 | -1.67 | -1.18 | -0.154 | 0.882 | -1.15 | -1.33 | -1.69 | -2.46 | -0.615 | 0.351 | -0.38 | interaction score (4H2736-AA): -1.62; interaction score (4H43-AA): -0.422; interaction score (GCN2_T): -0.66
DKNSQLKQEISELEQENSELEWKISQLKQ [P6A-bS] |  |  |  |  |  |  |  |  |  |  |  |  |  |  |  |  |  | interaction score (P6A-bS): -2.31; interaction score (P7A-bS): 1.24; interaction score (P8A-bS): 0.0461; interaction score (P9A-bS): -0.77
DEIAQLEQKNAELKQKIAELKWKNAQLKQ [4H496-bA] |  |  |  |  |  |  |  |  |  |  |  |  |  |  |  |  |  | interaction score (4H496-bA): -0.521
